Reference: paper PMC7596504, “Molecular mechanism of the MORC4 ATPase activation” (Nature Communications, 2020)

Experiments:
[1] = tested on: MORC4 ATPaseCW (Homo sapiens); assay: fluorescence polarization; conditions: EMSA DNA: 20 mM Tris-HCl pH 7.5, 150 mM NaCl, 2.5 mM MgCl2, 2 mM DTT, on ice; EMSA NCP: 25 mM Tris-HCl pH 7.5, 75 mM NaCl, 0.005% Tween 20, 10% glycerol, 4 C …
[2] = tested on: MORC4 ATPase domain (Homo sapiens); assay: fluorescence polarization; conditions: EMSA DNA: 20 mM Tris-HCl pH 7.5, 150 mM NaCl, 2.5 mM MgCl2, 2 mM DTT, on ice; EMSA NCP: 25 mM Tris-HCl pH 7.5, 75 mM NaCl, 0.005% Tween 20, 10% glycerol, 4 C …
LexA = assay: FRET; conditions: EMSA DNA: 20 mM Tris-HCl pH 7.5, 150 mM NaCl, 2.5 mM MgCl2, 2 mM DTT, on ice, EMSA NCP: 25 mM Tris-HCl pH 7.5, 75 mM NaCl, 0.005% Tween 20, 10% glycerol, 4 C …
Gal4 DNA-binding domain = assay: FRET; conditions: EMSA DNA: 20 mM Tris-HCl pH 7.5, 150 mM NaCl, 2.5 mM MgCl2, 2 mM DTT, on ice, EMSA NCP: 25 mM Tris-HCl pH 7.5, 75 mM NaCl, 0.005% Tween 20, 10% glycerol, 4 C …

Substance: NCP147
- K half [1]: 400 nM
- K half [2]: 2300 nM

Substance: NCP147 LexA
- K half (LexA; 1 uM MORC4 ATPaseCW): 2400 nM
- K half (LexA; no MORC4): 900 nM

Substance: NCP207
- K half [1]: 200 nM
- K half [2]: 500 nM

Substance: NCP252 Gal4
- K half (Gal4 DNA-binding domain; no MORC4): 20 nM
- K half (Gal4 DNA-binding domain; saturating MORC4 ATPaseCW, 0.3 mM ATP): 100 nM
- K half (Gal4 DNA-binding domain; saturating MORC4 ATPaseCW, no ATP): 40 nM
